Results: US20260317410 (published 2026)

Legend:
[1] = target: T1, His-Nectin-4 ECD (human, UniProt Q96NY8); experiment: BLI, 26C
T1 chain: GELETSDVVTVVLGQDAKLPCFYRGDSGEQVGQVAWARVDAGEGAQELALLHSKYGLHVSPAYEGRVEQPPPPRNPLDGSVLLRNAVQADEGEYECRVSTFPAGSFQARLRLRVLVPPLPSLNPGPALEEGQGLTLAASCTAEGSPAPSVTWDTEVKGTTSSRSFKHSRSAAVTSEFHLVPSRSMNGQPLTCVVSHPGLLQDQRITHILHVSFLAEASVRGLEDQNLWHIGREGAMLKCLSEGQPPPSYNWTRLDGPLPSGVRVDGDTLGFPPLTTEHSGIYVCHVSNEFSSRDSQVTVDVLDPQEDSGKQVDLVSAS

[2] = target: T2, Fc-Nectin-4 IgV (human, UniProt Q96NY8); experiment: BLI, 26C, bivalent analyte
T2 chain: T1 chain

B1: HA22 (Enfortumab) (antibody, V domains shown)
VH: EVQLVESGGGLVQPGGSLRLSCAASGFTFSSYNMNWVRQAPGKGLEWVSYISSSSSTIYYADSVKGRFTISRDNAKNSLSLQMNSLRDEDTAVYYCARAYYYGMDVWGQGTTVTVSS
VL: DIQMTQSPSSVSASVGDRVTITCRASQGISGWLAWYQQKPGKAPKFLIYAASTLQSGVPSRFSGSGSGTDFTLTISSLQPEDFATYYCQQANSFPPTFGGGTKVEIK
Q: For B1, which Kd [1] is on record?
A: The Kd was 5.2 nM.

Q: What about the Kd [2] of the same binder?
A: Its Kd is 12.9 nM.
